In patent US20210032347A1 (JIANGSU HANSOH PHARMACEUTICAL GROUP, published 2021):
Changes are numbered by the printed parent chain. Where two headings read alike, the source gives them in different places.

Assays:
[1] = target: T1, Human B7-H4 with HisFlag tag (huB7-H4-his) (human, UniProt Q7Z7D3 25-258); experiment: SPR Biacore T200, antibody coupled to CM5 chip, hu-B7-H4-his in flow, 1:1 model
T1 construct: also called HuB7-H4 His protein; huB7-H4-HF
T1 sequence: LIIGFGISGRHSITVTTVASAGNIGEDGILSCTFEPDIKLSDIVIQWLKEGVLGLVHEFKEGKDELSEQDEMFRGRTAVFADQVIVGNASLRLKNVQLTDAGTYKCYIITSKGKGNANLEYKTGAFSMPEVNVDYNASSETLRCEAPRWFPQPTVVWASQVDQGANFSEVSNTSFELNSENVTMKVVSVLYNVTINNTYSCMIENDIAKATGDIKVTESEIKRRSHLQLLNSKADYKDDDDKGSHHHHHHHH

[2] = target: T2, B7-H4 expressed on cells (MX-1 cells; CHO-S cells stably expressing B7-H4) (human, UniProt Q7Z7D3 25-282); experiment: flow cytometry (FACS) on MX-1 cells
T2 construct: whole, on cells; also called huB7-H4; antigens expressed by cells
T2 sequence (looked up): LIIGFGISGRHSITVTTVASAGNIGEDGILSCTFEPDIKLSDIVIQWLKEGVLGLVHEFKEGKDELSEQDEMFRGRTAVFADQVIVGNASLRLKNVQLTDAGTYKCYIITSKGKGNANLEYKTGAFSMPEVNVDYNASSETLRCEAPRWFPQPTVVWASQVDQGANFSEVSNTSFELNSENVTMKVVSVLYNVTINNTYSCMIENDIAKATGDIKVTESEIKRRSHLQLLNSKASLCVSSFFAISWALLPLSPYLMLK
Description: The cultured MX-1 cells were collected, cell density was adjusted with PBS pH 7.4, then plated onto a 96-well V-shaped bottom plate with 1×10⁵ cells per well, and centrifuged at 2000 rpm for 5 minutes to remove supernatant. 100 μl of the serially diluted chimeric antibody solution was added (diluted with 0.5% BSA in PBS to obtain a gradient of 3-fold dilutions, starting from 1 μM, with a total of 10 doses) into each well, mixed, and incubated for 1 hour at 4° C. with shaking; the culture was centrifuged at 2000 rpm for 5 minutes to remove the supernatant, and the cells were washed twice with PBS, and 100 μl of FITC-labeled goat anti-human secondary antibody (Abeam, cat #ab97224) diluted with 0.5% BSA in PBS was added into each well, mixed well and incubated for 30 minutes at 4° C. in a shaker. Centrifugation was performed at 2000 rpm for 5 minutes and the supernatant was removed. Cells were washed twice with PBS and resuspended in PBS. The signals were detected using flow cytometer (BECKMANCOULTER, model DxFLEX), and the concentration curve was plotted and the results were analyzed. As indicated in the table and figure, humanized antibodies 2F7, 2F8, 2G6 and 1C9 show positive bindings to MX-1 cells on which B7-H4 was highly expressed.

[3] = target: T3, antigen fragment TVASAGNIGEDGILSCAFEP (human); experiment: indirect ELISA on antigen fragment, alanine scan
T3 construct: Alanine-scan variant of P12; the entry already carries the alanine; also called P12 alanine mutant (T to A)
T3 peptide: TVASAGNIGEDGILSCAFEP
Description: (§1) The method procedures were the same as described in Example 3 (1): in vitro indirect ELISA binding assay. […] To further confirm the epitope to which the antibody binds, alanine scan was performed on the antigen fragment P12, that is, each single amino acid located in P12 was mutated to alanine respectively.

[4] = target: T4, antigen fragment TVASAGNIGEDGIASCTFEP (human); experiment: indirect ELISA on antigen fragment, alanine scan
T4 construct: Alanine-scan variant of P12; the entry already carries the alanine; also called P12 alanine mutant (L to A)
T4 peptide: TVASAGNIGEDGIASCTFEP
Description: as §1

[5] = target: T5, antigen fragment TVASAGNIGEDGILSCTFAP (human); experiment: indirect ELISA on antigen fragment, alanine scan
T5 construct: Alanine-scan variant of P12; the entry already carries the alanine; also called P12 alanine mutant (E to A)
T5 peptide: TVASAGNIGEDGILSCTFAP
Description: as §1

[6] = target: T6, antigen fragment TVASAGNIGEDGALSCTFEP (human); experiment: indirect ELISA on antigen fragment, alanine scan
T6 construct: Alanine-scan variant of P12; the entry already carries the alanine; also called P12 alanine mutant (I to A)
T6 peptide: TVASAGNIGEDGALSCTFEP
Description: as §1

[7] = target: T7, antigen fragment TVASAGNIGEDGILSCTAEP (human); experiment: indirect ELISA on antigen fragment, alanine scan
T7 construct: Alanine-scan variant of P12; the entry already carries the alanine; also called P12 alanine mutant (F to A)
T7 peptide: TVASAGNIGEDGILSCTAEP
Description: as §1

[8] = target: T8, antigen fragment TVASAGNIGEDGILSATFEP (human); experiment: indirect ELISA on antigen fragment, alanine scan
T8 construct: Alanine-scan variant of P12; the entry already carries the alanine; also called P12 alanine mutant (C to A)
T8 peptide: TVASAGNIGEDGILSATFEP
Description: as §1

[9] = target: T9, antigen fragment P12 (TVASAGNIGEDGILSCTFEP) (human); experiment: indirect ELISA on antigen fragment
T9 peptide: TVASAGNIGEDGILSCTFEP
Description: as §1

[10] = target: T4, antigen fragment TVASAGNIGEDGIASCTFEP; experiment: indirect ELISA on antigen fragment, alanine scan
[11] = target: T7, antigen fragment TVASAGNIGEDGILSCTAEP; experiment: indirect ELISA on antigen fragment, alanine scan
[12] = target: T8, antigen fragment TVASAGNIGEDGILSATFEP; experiment: indirect ELISA on antigen fragment, alanine scan
[13] = target: T9, antigen fragment P12 …; experiment: indirect ELISA on antigen fragment
[14] = target: T3, antigen fragment TVASAGNIGEDGILSCAFEP; experiment: indirect ELISA on antigen fragment, alanine scan
[15] = target: T10, antigen fragment TVASAGNIGEDGILSCTFEA (human); experiment: indirect ELISA on antigen fragment, alanine scan
T10 construct: Alanine-scan variant of P12; the entry already carries the alanine; also called P12 alanine mutant (P to A)
T10 peptide: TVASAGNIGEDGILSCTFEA

[16] = target: T4, antigen fragment TVASAGNIGEDGIASCTFEP; experiment: indirect ELISA on antigen fragment, alanine scan
[17] = target: T6, antigen fragment TVASAGNIGEDGALSCTFEP; experiment: indirect ELISA on antigen fragment, alanine scan
[18] = target: T7, antigen fragment TVASAGNIGEDGILSCTAEP; experiment: indirect ELISA on antigen fragment, alanine scan
[19] = target: T8, antigen fragment TVASAGNIGEDGILSATFEP; experiment: indirect ELISA on antigen fragment, alanine scan
[20] = target: T9, antigen fragment P12 …; experiment: indirect ELISA on antigen fragment

B1: humanized anti-B7-H4 antibody hu2F7 (antibody, human IgG1, kappa, V domains shown)
VH: EVQLVESGGGLVQPGGSLRLSCAASGFTFSNYYMSWVRQAPGKGLEWVAYVSSGGGSTYYSDSVKGRFTISRDNAKNTLYLQMSSLRAEDTAVYYCTRESYSQGNYFDYWGQGTTVTVSS
VL: EIVMTQSPATLSLSPGERATLSCRASQSISDYLHWYQQKPGQSPRLLIKFASQSISGIPARFSGSGSGTDFTLTISSLEPEDFAVYYCQNGHSFSLTFGQGTKLEIKR
notes: human IgG1 / kappa; also called humanized antibody 2F7
Kd [1]: 0.757 nM
koff [1]: 0.000249 s⁻¹
kon [1]: 329000 M⁻¹ s⁻¹
EC50 [2]: 7.32 nM
EC50 [3]: 463 nM
EC50 [4]: 1480 nM
EC50 [5]: 662 nM
EC50 [6]: 771 nM
EC50 [7]: 986 nM
EC50 [8]: 2010 nM
EC50 [9]: 118 nM

B2: humanized anti-B7-H4 antibody hu2F8 (antibody, human IgG1, kappa, V domains shown)
VH: EVQLVQSGAEVKKPGASVKVSCKASGYTFTSSWMNWVRQAPGQRLEWMGGIYPNRGNIEYNEKFKGRVTLTVDTSASTAYMELSSLRSEDTAVYYCARDSRFSYWGQGTLVTVSS
VL: DIQMTQSPSSLSASVGDRVTITCKASQDVRTAVAWYQQKPGKAPKLLISSTSYRYTGVPSRFSGSGSGTDFTFTISSLQPEDIATYYCQQHYSTPLTFGGGTKVEIKR
notes: human IgG1 / kappa; also called humanized antibody 2F8
Kd [1]: 0.25 nM
koff [1]: 0.000112 s⁻¹
kon [1]: 447000 M⁻¹ s⁻¹
EC50 [2]: 7.26 nM

B3: humanized anti-B7-H4 antibody hu1C9 (antibody, human IgG1, kappa, V domains shown)
VH: B2 VH with Y27D, S31T, S32Y, P53L, N57S, I58S
VL: B2 VL with R30S, T51A, S93N
notes: human IgG1 / kappa; also called humanized antibody 1C9
Kd [1]: ≤ 0.0298 nM
koff [1]: ≤ 1e-05 s⁻¹
kon [1]: 335000 M⁻¹ s⁻¹
EC50 [10]: 467 nM
EC50 [11]: 488 nM
EC50 [12]: 292 nM
EC50 [2]: 7.25 nM
EC50 [13]: 272 nM

B4: humanized anti-B7-H4 antibody hu2G6 (antibody, human IgG1, kappa, V domains shown)
VH: EVQLLESGGGLVQPGGSLRLSCAASGFTFSRYGMSWVRQAPGKGLEWVSGINGGGSYTYYLDTVKGRFTISRDNARNTLYLQMSSLRAEDTAVYYCVSQGSNYYFDYWGQGTLVTVSS
VL: DIRMTQSPSSLSASVGDRVTITCHASQGISSNIGWLQQKPGKAPKALIYHGTNLEDGVPSRFSGSGSGADYTLTISSLQPEDFATYYCVQYAQFPYTFGGGTKVEIKR
notes: human IgG1 / kappa; also called humanized antibody 2G6
EC50 [14]: 2290 nM
EC50 [15]: 2370 nM
EC50 [16]: 3160 nM
EC50 [17]: 2630 nM
EC50 [18]: 2600 nM
EC50 [19]: 3480 nM
Kd [1]: ≤ 0.0135 nM
koff [1]: ≤ 1e-05 s⁻¹
kon [1]: 741000 M⁻¹ s⁻¹
EC50 [2]: 14.3 nM
EC50 [20]: 793 nM
